Twelve molecules from patent publication US20240409645A1 can be followed below.

The chains are these.
T1: mouse IL-2Rα (mouse) (UniProt P01590)
T1 sequence (looked up): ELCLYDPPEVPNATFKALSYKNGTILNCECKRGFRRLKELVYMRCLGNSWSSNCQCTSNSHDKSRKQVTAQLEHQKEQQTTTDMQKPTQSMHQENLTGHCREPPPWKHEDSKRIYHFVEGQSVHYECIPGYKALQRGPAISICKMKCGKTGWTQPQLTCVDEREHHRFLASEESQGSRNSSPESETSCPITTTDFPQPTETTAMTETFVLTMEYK

B1: FJ1427_P035MP01H08 (VHH)
VHH: EVQLVESGGRLVQSGGSLRLSCAASGRAFSTHNMGWFRRAPGKEREFVAAISWNVDNKLYANSVKGRFAISRDNGRNMVYLQMNSLKPEDTAVYYCAADNIPLSSDMRATATEYDVWGQGTQVTVSS
B2: FJ1427_P035MP01H05 (VHH)
VHH: EVQLVESGGGLVQPGGSLRLSCAASGFTFSNNFMSWVRQAPGKGLEWVSTISYFGDSTTYAESVKGRFTISRDNAKNTLYLQMNNLKPEDTAVYYCAKATSYDSIRSGSRGRGTQVTVSS
B3: FJ1427_P035MP01D09 (VHH)
VHH: QVQLVESGGGLVQPGGSLRLSCAASGFTFSNNFMSWVRQAPGKGLEWVSTISYGGESTTYAESVKGRFTISRDNAKNTLYLQMNNLKPEDTAVYYCAKATSYDSIRSGSRGQGTQVTVSS
B4: FJ1427_P035MP01F08 (VHH)
VHH: EVQLVESGGGWVQPGDSLRLSCAASGRSFRNYVMGWFRQVPGKEREFLSVITSLGGTLDADSVADRFTISRDNSKNTVYLQMDSLKPEDTAVYYCAADRGPARYISASDVDYWGQGTQVTVSS
B5: FJ1427_P035MP01D08 (VHH)
VHH: EVQLVESGGGLVQAGGSLRLSCAASGGTFRTRNMGWFRRAPGKEREFVAAVSWNVDNKLYAGSVKGRFTISRDNGRNMVYLQMNSLKPEDTAVYYCAADNIPLSSDMRPTATEYDYWGQGTQVTVSS
B6: FJ1427_P035MP01H07 (VHH)
VHH: EVQLVESGGGLVQAGGSLRLSCAASGRTLSGYAMAWFRQPPDKGREFVTAISSSGIVTHVLDSVKGRFTISRDNAKNTVYLQMNSLQPEDTALYFCAATASSYSDYEANYNYWGQGTLVTVSS
B7: FJ1427_P035MP01E05 (VHH)
VHH: QVQLVESGGGLVQAGGSLRLSCAASGRTFRTHNMGWFRRAPGEEREFVAVISWNVDNKLYADSVKGRFTISRDNGRNMVYLQMNSLKPEDTAVYYCAADNIPLSSDVRATATEFGYWGQGTQVTVSS
B8: FJ1427_P035MP01E07 (VHH)
VHH: QVQLQESGGGLVQAGDSLRLSCAASGRSFRNYILAWYRQAPGKEREFLAAISWLEGTLYADSVEDRFTISRDNPKNTVHLQMDSLKPEDTAVYYCAADRGPVRPVLAPDVDYWGQGTQVTVSS
B9: FJ1427_P035MP01G07 (VHH)
VHH: QVQLVESGGGLVQTGDSLRLSCAASGRSFRNYILAWYRQAPGKEREFLAAISWLDGTLYADSVEGRFTISRDNPKNTVHLQMDSLKPEDTAVYYCAADRGPVRPVLAPDVDYWGQGTQVTVSS
B10: FJ1427_P035MP01E10 (VHH)
VHH: QVQLVESGGGLVQAGDSLRLSCAASGRSFRNYILAWYRQAPGKEREFLAAISWLDGTLYADSVEDRFTISRDNPKNTVHLQMDSLKPEDTAVYYCAADRGPVRPVLAPDVDYWGQGTQVTVSS
B11: FJ1427_P035MP01F06 (VHH)
VHH: QLQLVESGGGLVQAGGSLRLSCAASGGAFSRYAVGWFRMAPGKGREFVSAIDLSGTNTHVLDSVKGRFTISRDNDKNTAYLQMDKLQPEDTAVYWCAATSSSYSDYEANYNIWGQGTQVTVSS
B12: FJ1427_P035MP01G10 (VHH)
VHH: EVQLVESGGGLVQAGGSLRLSCAASGGAFSRYAVGWFRMAPGKGREFVSAIDLSGTNTHVLDSVKGRFTISRDNDKNTAYLQMDKLQPEDTAVYWCAATSSSYSDYEANYNIWGQGTQVTVSS

The target in the test is T1, mouse IL-2Rα (mouse). Nature of the test: ELISA, P.E. on coated antigen.
On to B1, for which the OD (PE binding ELISA) came out at 0.047 OD450 nm.

B2 registered an OD (PE binding ELISA) of 0.046 OD450 nm.

Consider B3, for which the OD (PE binding ELISA) was determined as 0.045 OD450 nm.

B4 returned an OD (PE binding ELISA) of 0.046 OD450 nm.

For the molecule B5, the OD (PE binding ELISA) worked out at 0.045 OD450 nm.

In the case of B6, the OD (PE binding ELISA) was 0.049 OD450 nm.

For B7, the OD (PE binding ELISA) was 0.046 OD450 nm.

As to B8, the OD (PE binding ELISA) stood at 0.046 OD450 nm.

Take B9: the OD (PE binding ELISA) is 0.047 OD450 nm.

For B10, the OD (PE binding ELISA) came out at 0.046 OD450 nm.

Regarding B11, the OD (PE binding ELISA) came out at 0.046 OD450 nm.

Molecule B12 had an OD (PE binding ELISA) of 0.046 OD450 nm.
